Results as given in patent US20160039867A1 (COMPLIX, published 2016).

Assays:
[1] = molecular target: the molecule itself; test: CD thermal unfolding curve (222 nm, 292 microM peptide) fitted to a monomer-trimer equilibrium; self-association of the peptide
Procedure: The said synthesized peptide was dissolved at a concentration of 292 microM in 20 mM phosphate buffer (PBS), 150 mM NaCl, pH 7.2. The CD spectra were measured between […], at 5° C. and 90° C. (FIG. 3). The spectrum at 5° C. was indicative of a high alpha-helical secondary structure content, in agreement with the expectation that all heptad regions, but not all of the flanking residues, would assemble as alpha-helical coiled coils.
In order to analyze whether the temperature-induced transition between helical and non-helical states was reversible, a forward (up) and backward (down) thermal scan was performed on the same sample, by recording the CD signal at […] as a function of temperature at a scanning rate of about 1 degree Celsius per minute (FIG. 4). It was observed that the up and down scans almost perfectly coincided, thereby confirming the quantitative unfolding and refolding of the peptides in the sample.
FIG. 5 represents fitting of a theoretic equation for trimeric association to experimental data. The experimental data are taken from FIG. 4, curve labeled ‘UP’. The theoretic equations used are listed supra. The fitted parameters (fitting results) are listed at the right in FIG. 5. ‘Transit. T’ corresponds to Tₜ, but is expressed in degrees Celsius. The parameter ‘delta Cₚ’ was kept constant at 3.0 kJ mol⁻¹ K⁻¹. […]

[2] = molecular target: the molecule itself; test: analytical sedimentation equilibrium ultracentrifugation, 25000 rpm, about 1 mg/ml; self-association of the peptide

B1: peptide Ac-MSIEEIQKQQAAIQKQIAAIQKQIYRMTP-NH2 (reference artificial peptide of Example 3) (peptide)
peptide: Ac-MSIEEIQKQQAAIQKQIAAIQKQIYRMTP-NH2
notes: Synthetic designed coiled coil-forming peptide; also called said synthesized peptide
Does B1 bind [1]?
Result: binds

B2: Q2aI peptide Ac-MSIEEIQKQIAAIQKQIAAIQKQIYRMTP-NH2 (peptide)
peptide: Ac-MSIEEIQKQIAAIQKQIAAIQKQIYRMTP-NH2
notes: Synthetic designed coiled coil-forming peptide; also called all-isoleucine core peptide
Does B2 bind [2]?
Result: binds
